In assay [1] the target is MBP^V8G/Y283D (E. coli) [MBP: P0AEX9]. The assay can be described thus: ITC. Background: Isothermal titration calorimetry measures the heat released or taken up as one component is titrated into another.
The target in assay [2] is biotin-labeled MBP (E. coli) [MBP: P0AEX9]. Briefly: BLI. In general terms: Biolayer interferometry detects binding as a change in optical thickness at a sensor tip.

SecB, sequence (P0AG86 whole entry): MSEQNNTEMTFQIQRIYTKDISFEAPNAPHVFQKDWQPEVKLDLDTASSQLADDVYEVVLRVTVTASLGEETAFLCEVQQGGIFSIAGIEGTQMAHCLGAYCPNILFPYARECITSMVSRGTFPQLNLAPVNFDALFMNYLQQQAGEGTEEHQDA
Trigger Factor (TF), sequence (P0A850 whole entry): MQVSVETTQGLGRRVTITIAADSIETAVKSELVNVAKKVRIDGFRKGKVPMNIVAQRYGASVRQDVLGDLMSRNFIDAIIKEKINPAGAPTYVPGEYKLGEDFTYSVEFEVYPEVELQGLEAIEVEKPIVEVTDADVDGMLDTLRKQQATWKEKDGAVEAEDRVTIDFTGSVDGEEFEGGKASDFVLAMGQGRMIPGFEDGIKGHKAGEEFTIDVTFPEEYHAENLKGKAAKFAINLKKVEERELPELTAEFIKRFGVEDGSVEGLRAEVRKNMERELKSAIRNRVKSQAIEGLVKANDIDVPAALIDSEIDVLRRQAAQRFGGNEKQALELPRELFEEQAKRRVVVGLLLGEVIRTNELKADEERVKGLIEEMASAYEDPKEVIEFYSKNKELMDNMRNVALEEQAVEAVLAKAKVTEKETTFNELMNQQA

What is called Kd is the free concentration of one partner at which half of the binding sites on the other are occupied at equilibrium, for simple one-to-one binding. High values mean a looser complex, low ones a tighter complex. As a reminder, the koff is the rate constant with which the complex falls apart. A lower koff goes with slow dissociation. “SecB (from UniProt P0AG86 1-155) (natural protein)” came in with a Kd in assay [1] of 50 mM. The substance further registered a dissociation rate constant (koff) in assay [2] of 0.01 s⁻¹.

With “Trigger Factor (TF) (from UniProt P0A850 1-432) (natural protein)”, the koff in assay [2] is 0.05 s⁻¹.

These data come from publication PMC5161705.
